Test results: the supplement of paper PMC7877785
± gives the uncertainty stated by the source.

Assay: self-splicing fitness, log relative to wild type (ln ratio); higher = more splicing; Tetrahymena group I intron in knt gene, E. coli kanamycin selection, DiMSum; sequences stand for … in CUCUCU…GGAGGGAAAAGUUAUCAGGCAUGCACCUGGUAGCUAGUCUUUAAACCAAUAGAUUGCAUCGGUUUAAAAGGCAAGACCGUCAAAUUGCGGGAAAGGGGUCAACAGCCGUUCAGUACCAAGUCUCAGGGGAAACUUUGAGAUGGCCUUGCAAAGGGUAUGGUAAUAAGCUGACGGACAUGGUCCUAACCACGCAGCCAAGUCCUAAGUCAACAGAUCUUCUGUUGAUAUGGAUGCAGUUCACAGACUAAAUGUCGGUCGGGGAAGAUGUAUUCUUCUCAUAAGAUAUAGUCGGACCUCUCCUUAAUGGGAGCUAGCGGAUGAAGUGAUGCAACACUGGAGCCGCUGGGAACUAAUUUGUAUGCGAAAGUAUAUUGAUUAGUUUUGGAGUACUCGUGGUCG
In short: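 Colonies from six replicate transformations of E. coli BL21(DE3) were pooled and amplicon-sequenced on an Illumina HiSeq 2500. The library placed an intron with all eight P1ex-region nucleotides randomised inside the knt kanamycin-resistance gene on pET-22b(+), and cells grew overnight at 37°C or 30°C on LB agar with or without 25 μg/mL kanamycin (plus 100 μg/mL carbenicillin, 50 μM IPTG, 0.2% rhamnose). Fitness is the DiMSum error-weighted combination of wild-type-normalised replicate fold changes, kanamycin versus none.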

Sequence | self-splicing fitness (ln) (30 °C) | self-splicing fitness (ln) (37 °C)
CAGGAGCAAUAUUACGCCUC | -2.08 ± 0.23 | –
CAGGAGCAAUAUUACGCGUU | -3.4 ± 0.17 | -2.01 ± 0.19
CAGGAGCAAUAUUACGCUUA | -2.86 ± 0.21 | -2.02 ± 0.21
CAGGAGCAAUAUUACGGCCU | -2.22 ± 0.24 | -1.42 ± 0.31
CAGGAGCAAUAUUACGGCGU | -3.11 ± 0.2 | -2.84 ± 0.28
CAGGAGCAAUAUUACGGCUA | -2.6 ± 0.19 | -1.34 ± 0.16
CAGGAGCAAUAUUACGGGUG | -1.64 ± 0.082 | -0.707 ± 0.08
CAGGAGCAAUAUUACGGUGG | -1.91 ± 0.14 | 0.146 ± 0.1
CAGGAGCAAUAUUACGUAAC | -3.33 ± 0.26 | -2.74 ± 0.32
CAGGAGCAAUAUUACGUAUC | -3.11 ± 0.23 | -3.54 ± 0.27
CAGGAGCAAUAUUACGUCAG | -3.88 ± 0.4 | -1.17 ± 0.28
CAGGAGCAAUAUUACGUCCU | -2.72 ± 0.24 | -2.08 ± 0.24
CAGGAGCAAUAUUACGUCUG | -2.47 ± 0.22 | –
CAGGAGCAAUAUUACGUGUG | -2.56 ± 0.13 | -0.614 ± 0.1
CAGGAGCAAUAUUACGUUCU | -4.15 ± 0.2 | -2.05 ± 0.14
CAGGAGCAAUAUUACGUUUC | -3.21 ± 0.28 | -3.11 ± 0.38
CAGUAGCAAUAUUACGACUA | 0.402 ± 0.089 | 0.675 ± 0.11
CAGUAGCAAUAUUACGAGUA | -2.34 ± 0.21 | -2.57 ± 0.31
CAGUAGCAAUAUUACGAGUG | -0.988 ± 0.052 | -0.603 ± 0.076
CAGUAGCAAUAUUACGAUAG | 0.00229 ± 0.079 | 0.167 ± 0.097
CAGUAGCAAUAUUACGCAAA | – | -3.33 ± 0.43
CAGUAGCAAUAUUACGCCAA | -2.85 ± 0.36 | -2.91 ± 0.31
CAGUAGCAAUAUUACGCUGG | -2.5 ± 0.17 | -1.34 ± 0.19
CAGUAGCAAUAUUACGGUCA | – | -1.71 ± 0.28
CAGUAGCAAUAUUACGUCAG | -0.873 ± 0.07 | 0.623 ± 0.095
CAGUAGCAAUAUUACGUCCG | -0.245 ± 0.24 | 1.29 ± 0.42
CAGUAGCAAUAUUACGUCGA | -3.45 ± 0.25 | -1.49 ± 0.17

Sequence | self-splicing fitness (ln) (30 °C) | self-splicing fitness (ln) (37 °C)
CAGUAGCAAUAUUACGUCGC | – | -2.7 ± 0.4
CAGUAGCAAUAUUACGUUAU | -2.82 ± 0.24 | -1.37 ± 0.2
CAGUAGCAAUAUUACGUUGA | – | -2.14 ± 0.16
CAUAAGCAAUAUUACGACAU | -3.64 ± 0.024 | -2.45 ± 0.037
CAUAAGCAAUAUUACGACGG | -0.41 ± 0.072 | -0.00998 ± 0.088
CAUAAGCAAUAUUACGAGGA | -3.13 ± 0.18 | -2.23 ± 0.21
CAUAAGCAAUAUUACGAGUU | -3.62 ± 0.29 | -1.82 ± 0.14
CAUAAGCAAUAUUACGAUUG | -2.62 ± 0.095 | -1.27 ± 0.11
CAUAAGCAAUAUUACGCAUA | -2.48 ± 0.18 | -1.71 ± 0.24
CAUAAGCAAUAUUACGCGAA | -2.82 ± 0.25 | -2.59 ± 0.34
CAUAAGCAAUAUUACGCGCA | -1.4 ± 0.11 | -0.55 ± 0.11
CAUAAGCAAUAUUACGCUGA | -2.49 ± 0.21 | -2.62 ± 0.28
CAUAAGCAAUAUUACGCUUA | -3.59 ± 0.29 | -2.65 ± 0.26
CAUAAGCAAUAUUACGGCAG | 0.0468 ± 0.075 | -0.545 ± 0.089
CAUAAGCAAUAUUACGGCCU | -3.3 ± 0.37 | -2.79 ± 0.4
CAUAAGCAAUAUUACGGGAC | -1.54 ± 0.18 | -2.23 ± 0.27
CAUAAGCAAUAUUACGGGCG | -0.054 ± 0.08 | 0.166 ± 0.092
CAUAAGCAAUAUUACGGGCU | – | -2.73 ± 0.25
CAUAAGCAAUAUUACGGGGU | -4.17 ± 0.19 | -2.46 ± 0.15
CAUAAGCAAUAUUACGGUUC | -3.7 ± 0.17 | -3.08 ± 0.19
CAUAAGCAAUAUUACGUCCU | -3.78 ± 0.27 | -3.15 ± 0.19
CAUAAGCAAUAUUACGUGUG | -3.56 ± 0.15 | -2.94 ± 0.17
CAUAAGCAAUAUUACGUUAG | -1.13 ± 0.083 | -0.61 ± 0.11
CAUAAGCAAUAUUACGUUAU | -4.62 ± 0.3 | -2.58 ± 0.16
CAUAAGCAAUAUUACGUUCC | -3.94 ± 0.32 | –
CAUCAGCAAUAUUACGAAUA | -1.48 ± 0.23 | -0.645 ± 0.17
CAUCAGCAAUAUUACGACUA | -1.26 ± 0.13 | -0.0399 ± 0.13

Sequence | self-splicing fitness (ln) (30 °C) | self-splicing fitness (ln) (37 °C)
CAUCAGCAAUAUUACGAGCC | -3.22 ± 0.31 | -2.33 ± 0.41
CAUCAGCAAUAUUACGAGGA | -3.13 ± 0.23 | -2.6 ± 0.19
CAUCAGCAAUAUUACGAUGC | -4.35 ± 0.36 | -2.76 ± 0.33
CAUCAGCAAUAUUACGCACC | -3.56 ± 0.14 | -1.61 ± 0.12
CAUCAGCAAUAUUACGCAGC | -3.35 ± 0.14 | -1.29 ± 0.12
CAUCAGCAAUAUUACGCCCU | -2.55 ± 0.36 | -1.54 ± 0.43
CAUCAGCAAUAUUACGCCGG | -0.415 ± 0.086 | -0.327 ± 0.11
CAUCAGCAAUAUUACGCGGU | -3.35 ± 0.18 | -2.39 ± 0.22
CAUCAGCAAUAUUACGCUCG | -0.495 ± 0.064 | -0.134 ± 0.079
CAUCAGCAAUAUUACGCUGC | – | -2.61 ± 0.3
CAUCAGCAAUAUUACGCUUU | -2.23 ± 0.097 | -1.34 ± 0.1
CAUCAGCAAUAUUACGGCCU | -3.29 ± 0.16 | -2.15 ± 0.16
CAUCAGCAAUAUUACGGGGC | -4 ± 0.16 | -2.01 ± 0.15
CAUCAGCAAUAUUACGUAUG | -2.16 ± 0.14 | -1.43 ± 0.15
CAUCAGCAAUAUUACGUCCA | -1.71 ± 0.12 | -2.92 ± 0.22
CAUCAGCAAUAUUACGUCGC | -3.05 ± 0.18 | -2.11 ± 0.23
CAUCAGCAAUAUUACGUCUG | -0.675 ± 0.047 | 0.264 ± 0.059
CAUCAGCAAUAUUACGUGCA | -3.14 ± 0.21 | -1.97 ± 0.2
CAUCAGCAAUAUUACGUGCG | -0.149 ± 0.056 | 0.355 ± 0.075
CAUCAGCAAUAUUACGUUAG | -0.472 ± 0.073 | -0.526 ± 0.08
CAUGAGCAAUAUUACGAAUU | -4.16 ± 0.35 | -2.49 ± 0.23
CAUGAGCAAUAUUACGCAGC | -3.08 ± 0.38 | -2.32 ± 0.34
CAUGAGCAAUAUUACGCAUC | -2.04 ± 0.31 | -2.41 ± 0.33
CAUGAGCAAUAUUACGCCCA | -1.49 ± 0.42 | –
CAUGAGCAAUAUUACGCCGU | -3.93 ± 0.37 | -3.36 ± 0.26
